Measured values as given in patent publication US20230235057A1.

Experiments:
[1] = molecular target: human TGFβ1 protein (Sinobiological, 10804-H08H) (human) (UniProt P01137); assay: ELISA with reference to Example 5, reference sample
[2] = molecular target: human TGFβ1 protein (Sinobiological, 10804-H08H) (human) (UniProt P01137); assay: ELISA with reference to Example 5, plate coated with human TGFβ1
[3] = molecular target: human TGFβ1 protein (Sinobiological, 10804-H08H) (human) (UniProt P01137); assay: ELISA, plate coated with human TGFβ1, HRP-goat anti-human IgG detection

Chain of PD1/TGFβRII fusion protein (heavy): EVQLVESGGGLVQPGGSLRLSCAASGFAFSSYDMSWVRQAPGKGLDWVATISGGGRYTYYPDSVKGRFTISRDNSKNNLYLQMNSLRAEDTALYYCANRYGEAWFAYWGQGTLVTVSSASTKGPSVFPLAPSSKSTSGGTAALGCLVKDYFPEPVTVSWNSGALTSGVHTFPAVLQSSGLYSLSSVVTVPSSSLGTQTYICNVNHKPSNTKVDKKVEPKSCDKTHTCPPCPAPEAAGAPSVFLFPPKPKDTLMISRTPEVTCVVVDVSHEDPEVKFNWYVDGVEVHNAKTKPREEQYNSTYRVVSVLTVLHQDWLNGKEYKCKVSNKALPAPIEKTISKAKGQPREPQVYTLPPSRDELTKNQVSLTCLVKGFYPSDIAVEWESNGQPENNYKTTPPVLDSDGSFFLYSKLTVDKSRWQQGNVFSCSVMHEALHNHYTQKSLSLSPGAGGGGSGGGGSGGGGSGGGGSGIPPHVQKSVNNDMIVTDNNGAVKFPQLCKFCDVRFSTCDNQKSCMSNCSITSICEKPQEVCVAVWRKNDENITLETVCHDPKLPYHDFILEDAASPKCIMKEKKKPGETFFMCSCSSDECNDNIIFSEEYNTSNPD
Chain of PD1/TGFβRII fusion protein (light): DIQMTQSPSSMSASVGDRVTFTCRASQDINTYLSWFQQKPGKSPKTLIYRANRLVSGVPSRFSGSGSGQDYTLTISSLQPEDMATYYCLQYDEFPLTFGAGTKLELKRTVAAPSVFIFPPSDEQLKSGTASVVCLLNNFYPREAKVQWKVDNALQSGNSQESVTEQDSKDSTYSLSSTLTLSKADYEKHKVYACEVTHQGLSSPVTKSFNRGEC

Binding activity (EC50 of control / EC50 of test sample) [1]: 100%
EC50 [2]: 0.0617 µg/mL
EC50 [3]: 0.398 nM
Substance: PD1/TGFβRII fusion protein
